According to the DeepSol protein solubility set:

experiment: soluble on expression in E. coli; label from the status in PepcDB or PDB records

Sequence | soluble on expression in E. coli
GPGSMSSLQKINDIEAELARTQKNKATMAHICALKARLAQLKRELIASESKKGGGKGEGFDVQKTGDARIGFIGFPSVGKSTLLSKMTSTHSEVAAYEFTTLTCVPGVVNYRGAKLQMLDLPGIIEGAKDGKGRGRQVIAVARTCSLILIVLDIAKPLQHKLIIERELDGFGIRLNKSPPDIVIRKKDRGGISISSTCPLTHIDQETIKIILGEYRMANADVTFRGDYTADEFIDAIEGNRAYIPAIYVLNKIDQISIEELDIVARIPHNCPISAHHEWNLDGLLECIWDHLNFIRVYTKPKGQVPDYDAPVILKKSPQPSVESFCNRIHRQLIRNYKYAWVWGSSVKHQPQRVGKDHSLDDEDVVQVVKKV | not soluble
MSRVSTAPSGKPTAAHALLSRLRDHGVGKVFGVVGREAASILFDEVEGIDFVLTRHEFTAGVAADVLARITGRPQACWATLGPGMTNLSTGIATSVLDRSPVIALAAQSESHDIFPNDTHQCLDSVAIVAPMSKYAVELQRPHEITDLVDSAVNAAMTEPVGPSFISLPVDLLGSSEGIDTTVPNPPANTPAKPVGVVADGWQKAADQAAALLAEAKHPVLVVGAAAIRSGAVPAIRALAERLNIPVITTYIAKGVLPVGHELNYGAVTGYMDGILNFPALQTMFAPVDLVLTVGYDYAEDLRPSMWQKGIEKKTVRISPTVNPIPRVYRPDVDVVTDVLAFVEHFETATASFGAKQRHDIEPLRARIAEFLADPETYEDGMRVHQVIDSMNTVMEEAAEPGEGTIVSDIGFFRHYGVLFARADQPFGFLTSAGCSSFGYGIPAAIGAQMARPDQPTFLIAGDGGFHSNSSDLETIARLNLPIVTVVVNNDTNGLIELYQNIGHHRSHDPAVKFGGVDFVALAEANGVDATRATNREELLAALRKGAELGRPFLIEVPVNYDFQPGGFGALSI | soluble
HKFIRTAIDMDKNRAFSSRLRQSIKDYFDMPWYLTFADAERLSDLRDEALVLRDDEVTGQVPMEVEYEEFQQVNDELSERIGDMLKAHKEQGTPIDLSVVLRDYLAQHPYTHHFDLARIIVDQAVRLGYSESDYQAIQPDWKAINEFGAKVQANVIDRY | soluble
MIKIGVITMALLSFLNAGWFSLLFGSNPDPISIPIDLSQAGSVVEREVKIEETWAYDLFLEFAVLDRKEDGGLDGKKVRKFLGFNSYNPYDGKKLGFGDYEQAKRKLGDLIDETYDCDGTIAPIKLTIHQINKDNTKKLIVDNLYMTKGYSSGAYERDIAIISLDKGKYIFRIENIEAFQEMNARKVNFIIRIHKRDK | not soluble
MRGCNKETGEFLGPSRSQQRRTALEVLVLSEKLAALTPAQLAKLPIPERLLPHITETKRITSHIARKRQLAFLAKQMRREDDTTLEAIREKLNASGIQAQREVATLHRTEQWRKRLLEEGDSALTELLNQYPQADCGKLRQLLRNSKTEQARNKAPQAFRELYQVLHGLIITQ | not soluble
AQYKDDPILKAATIVSAPLDLAACANRIEQGFSKVYRRYLLSSLKRNALQKHHLLHGELALSYNSIKRVTRLYEFDDLITAPLHGFKDAQDYYDQCSGLSKLLQITLPTLIIHAKDDPFMTEEVIPKFVLPDNIDYRLFEHGGHVGFLTGT | not soluble
MNSPDIALIKTYLLTLQDNICAALAQADGHAEFTEECWVREEGGGGRSRVLVNGAVFEQAGVNFSHVSGAMLPASATAHRPELAGRSFQALGVSLVIHPLNPYLPTSHANVRFFIAEKPGEDAVWWFGGGFDLTPYYGFEEDAIHWHQVAHSLCQPFGEQIYPRYKKWCDDYFYIKHRQEARGIGGLFFDDLNSPDFMTCFNFTQAVGDGFLAAYMPIVARRKALGWGDRERQFQLYRRGRYVEFNLVWDRGTLFGLQTGGRTESILMSLPPLVRWEYNYQPEADSAEAALYRDFLPVKDWLAIKGETH | not soluble
MSLSNIAVSEKDLQRFCRDLLKQSLPDEEAEVIAETLVDADLRGVTSHGVQRVAGYLKRMEDGIIERKTDISVVQDSFATALLDANNGWGQVAGVKAMEMAIQKAGQYGTSFVGVSNSNHFGTASFYTRMAAEKGFIGISMTNASPIMVPFGAKEPSLGPNPISISIPAGEGKKPIILDMSTSNVARGKIMVAKKNKESIPEGWAITKDGKQTTDADEAWEGFVLPMGPKGSGLAIIIDILSGVLTGSLFGKRIPRQYDDPYPQQLGHLFGAINIENFGEPELFYQNVLEKIEETISSEPSEGFDQVYMPGDMESQRKKEYKENGIPLSQEIINELRKTGEKYGVDLEHYLSQNKQREGHHHHHH | soluble
MGSDKIHHHHHHMFEKQFNHRTLETSLGPVEIEGPVTSQILATYKLDPGLTAFRQPAEQHEALVEIAALEEGRIIIARQGNDIIGYVTFLYPDPYETWSEGNNPYILELGAIEVAARFRGQQIGKKLLEVSMLDPAMEHYLILTTEYYWHWDLKGSGLSVWDYRKIMEKMMNHGGLVFFPTDDPEIASHPANCLMARIGKHVAPEVVAHFDALRLRRRFMYD | not soluble
MAHHHHHHMGLTDLFRRETPQERIRMYKRQLDRTCRDLDRERNKLSTQERKIMMEMKKMAKQDQVDAVRIMARDLVRTRKYNQKMYRMRTQIQGVSLRMQTMQSSAQMADAMKGVTKAMRSMNKKMNIPEIQKIMREFEKQNEMMGMKEDMMNDAVDEVMDDDGMEEEETEQEIQKVMDEAGLEFRTKVGVTDTALPQKSTETQGETDEELDARLAALKASMK | soluble
MAHHHHHHMNFLNDEILKKSCEIEKLQDRLLDYESKLLIYENNNEIKILKKNEDHLRKLLSKHIHRNEQLLNTTFLLQKSTLENNSLEKKIIELRAKSYRKDQEIKKLQETKSIRKSPSSNCSHNSQEYSMDLIDDLNEDNYNLKYYHNNSIVGDQENSVYTSKKSYDKNITIGSLADTEKRSIKIKNIIPHSHNNEDPVHFALCEYLNCFKKNNLSIKINKLDDNTYLLNDKKVVISFINGDLYVEDDASPIKLQDYLLKTVVR | soluble
NPNPISIPIDLSQAGSVVEKEVKIEESWSYHLILQFAVHDRKEDGGLDGKRVWKFLGFNSYDPRDGKQVGYVDYRLAKSELGDLIDETYDCDGTVVPIKITIHQINQDNTKKLIADNLYMTKGNGSGAYTRDITTISLDKGKYIFRIENIEAFSEMIGRKVDFTIYINKRDK | soluble
MSLNARTNIALLANSSSPLHPLQELLAVAGYQCNVFHAGRDLIQGLGHDTYEMLLIDRELADISAIDVIRTVRAVRNRDVPIVIFASENNDDDLVEALDAGADDYVLRPLAARVLLARIAALRRRMSGTRLRGAMPLRAGPYELSNPGRYATLNGGRIPMTPKEFDLAMLMFANAGRILASRRIEHTIWGHDLPPYSRALAGLVSRMRRTLNLCAENGVTVSVVYAQGYRLDILDEGHHHHHH | not soluble
MNIDTREITLEPADNARLLSLCGPFDDNIKQLERRLGIEINRRDNHFKLTGRPICVTAAADILRSLYVDTAPMRGQIQDIEPEQIHLAIKEARVLEQSAESVPEYGKAVNIKTKRGVIKPRTPNQAQYIANILDHDITFGVGPAGTGKTYLAVAAAVDALERQEIRRILLTRPAVEAGEKLGFLPGDLSQKVDPYLRPLYDALFEMLGFEKVEKLIERNVIEVAPLAYMRGRTLNDAFIILDESQNTTIEQMKMFLTRIGFNSKAVITGDVTQIDLPRNTKSGLRHAIEVLADVEEISFNFFHSEDVVRHPVVARIVNAYEAWEEAEQKRKAALAAERKREEQEQK | soluble
MAQKVEAGGGAGGASWDDGVHDGVRKVHVGQGQDGVSSINVVYAKDSQDVEGGEHGKKTLLGFETFEVDADDYIVAVQVTYDNVFGQDSDIITSITFNTFKGKTSPPYGLETQKKFVLKDKNGGKLVGFHGRAGEALYALGAYFATTTTPVTPAKKLSAIGGDEGTAWDDGAYDGVKKVYVGQGQDGISAVKFEYNKGAENIVGGEHGKPTLLGFEEFEIDYPSEYITAVEGTYDKIFGSDGLIITMLRFKTNKQTSAPFGLEAGTAFELKEEGHKIVGFHGKASELLHQFGVHVMPLTN | soluble
MTPIPLINIPLCNLAGDGYILSEKSQSQNMLRGIVMSETVRVGLLGYGYASKTFHAPLIAGTAGMELVAVSSSNAEKVHADWANLRVEKDPQALFSDPDIDLIVIPTPNDTHFPLAKQALEAGKHVVVDKPFTVTLSQAYDLGAIAERAGKVLSVFHNRRWDSDFLTLKQLLSAGTLGNVVYMESHFDRFRPEVRQRWREDGSEGSGIWYDLGPHLLDQALELFGLPVAIQVDMAQLRPGSKATDYFHATLIYPQRRVILHASMLVAAASARYTVHGTRGSFVKYGLDPQEDRLKAGERPPLADWGQDKHDGVLTLSRDGITAEQTIATIPGNYPAYYAAVRDALLGKGENPVGVNQAIQVMELIELGLLSHEQKKAVALKNSLEHHHHHH | not soluble
MAHHHHHHMPVIKEYINPAGLRLDGRRPNEPRRLALEFGKISGCDGCCTVVSGLSHVCATVYGPREVSNRLEGKYNEVTITCDVVVAAFAGERRREQQRYSRLSEDISASVLDVARSVVLLSQYPNSQIHICIEVLKQDGSDKAACINAACLALIDASIAMKDVVYTQTVGLIEGFDVVDLTTEEIHSQCPSICITVQGHDPTNIVWMESNSRLAPEVITRLVKVAQKASTDVFETALRGPLEEHAATVLRLQANLGNIE | soluble
KGSAFAPGITAGMGVKYKLKPRINVGIEYSFTGLLTDALDALTDKSVWLEDPYKINDSWVKNKDATGALVLRITYDFGLRKTFCNKQ | not soluble
MNHDIDIKKVRLNCFRQSKVPGEFMLQMRIPGGIVDAKYLSQIQEIAETWGNGTFHMGMRQTFNIPGIKYENIQAVNKFIENYLQEVEVDRCNCDMKVDENGYPTIGARNVMACIGNSHCIKANVDTKDMANKIEKLVFPSHYHIKVSVAGCPNDCAKGHFQDFGVIGQARMEYHEERCIGCGACVRACEHHATRVLSLNDKGLVDKDPCCCVGCGECVLACPASAWTRKPEKFYRIVIGGRTGKQTPRMGKTFINFATEEVVLGIFANWQKFSAWALDYKPEYLHGGHLIDRAGYHKFKEIILDGVELNPEALVADNIFWAETEYRSNFNVKPIKMHKTIESNRPLRLEHHHHHH | not soluble
MGSDKIHHHHHHMFKKIVLHGWRQFRNVDIDFHPRLTVLTGANGAGKTTLLNLVSRHFGWDGSFISTPVPRRSNPSLMYSTDFWDIDDIQVDIIHSFEREQNRKKQAAAQGSQTTIGKIIYGDGTETLITVPNSEVGSRYDVSIPARQRIDGLHIPSHRAPSTYQQVQNIPTIPRRRQEVFNQYLSLVQSRYLGSYTQWSPQYYMKETLISLATFGYGNAVVDADPESARLFEGFQEILRKMLPPKLRFKRLQIRVPEVILETETGNFSIDALSGGAAAVIDLAWQVFMYEPSESEFVVTLDEPENHLHPELQQRVLADLLTAFPSVQFVVATHSPFIVGSVPHSHVYVLGYDDSRRVNSTLLDTVNKTGTANEILRDVLGLEFTIPVWVENRLENLIEKYSKKDFTEDNLMMLRQEMTSLGLGKHVPQTISMLAQKKDGQ | not soluble
MAHHHHHHMNVVDFTWSRIRLFDHLAVILIYEELLKNPLCKITNVYESETRKYKPYPLNTLQMTKLVSIYFKISSKECMMLAEKLYNKGYISYPRTETNYFPDSMNLHKIINELRKNDNFGWYANKLCEEHKYQKPRKGKMNDKAHPPIHPVKNMNKSLKVEEKEWKLYEFICKHFLAVCSNDAIGYNTKVTAKIQEEQFFCKGLKIKEKNYLEIYTYEKWNDKIIPSFQVDDEFYPTSLLIEEGITQPPKYLSESNLLTLMDKFSIGTDATMHEHIENIQKRNYVIKNSKSLFIPTNLGIALVQSYKKFKDIGIDLTDPSLRAKMEKDMSLVASGVKQKNEIIRNYIDIMKYIYQEIYNRIDVLDKNIHYYLNNPDQLSYT | not soluble
